# Source: the RNAGym collection of RNA variant scans (doi:10.1073/pnas.2313332121)
# B1: TPR t1 (parent)
# chain: GACCAAUCUGCCCUCAGAGCUCGAGAACAUCUUCGGAUGCAGAGGAGGCAGGCUUCGGUGGCGCGAUAGCGCCAACGUCCUCAACCUCCAAUGCAUCCCACCACAUGAUGAUGCCUGAAGAGCCUUGGUUUUUUG
# Variants of: B1
# Experiment: polymerase ribozyme fitness, log enrichment relative to wild type (log ratio); higher = more active; in vitro selection for triplet polymerase activity
# Method in brief: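 Fitness compares each genotype's enrichment to that of the wild type on a logarithmic scale, averaging replicates with inverse-variance weights. The logarithm is base 2. Enrichment came from Illumina sequencing of input and output libraries after one triplicate round of in vitro selection, which included frozen incubation at −7 °C, of PCR-built, transcribed mutant libraries of each subunit of a heterodimeric triplet polymerase ribozyme. Only genotypes with ≥10 input reads and ≥1 read per output were kept.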
row,Variant,polymerase ribozyme fitness (log ratio)
1,C13U A105U C115A A121U,0.733
2,C3G U81C A111C G128A U133G,-4.61
3,C8G U9G C70A,-1.19
4,U38A C64U U132A,-0.788
5,C72A C86G C89U,-1.07
6,G52U G58C,-0.674
7,C88A C94A,-1.66
8,C72A C123A,0.479
9,A46C G71U U87A C123U U132A,0.774
10,C72A G93C C114U C115U,-6.52
11,A37U G110C A121U,-3.77
12,G36C C102U,-3.5
13,C70A C85U G110C C115U A121G,-7.89
14,G39A G61A C89A G120C,-1.19
15,G10A G48A G52A,-1.11
16,A6U A26U C34A A43U A121C,-7.38
17,U87C C115U,-0.297
18,C12G C15G G47C C82G,-4.81
19,A27C,-2.85
20,U7G G93C,-0.742
21,A29U C62U C89G,-3
22,G61C C97A C124G,-5.48
23,C13G C15G A26U C94A C114U,-6.55
24,C15G A16G C49U C56U G117U,-1.99

row,Variant,polymerase ribozyme fitness (log ratio)
1,C13A G19C G69U G110U U112C,-5.05
2,G36U A121C U125A G127U G128C,-0.954
3,C8U C13A A37U G47A C62U G122A,-1.54
4,U9G C86A C114A,-0.649
5,C53U C72U C82G C123G,-0.45
6,C53A G60A,-0.364
7,C8G C12G U55G G61U G71A,-6.64
8,C4G U9C A43G G47A C70U,-4.92
9,U9C G58A A100U,-0.581
10,C79U G93U,-1.77
11,U54C C72U C82U A83C C115G G117A U129C,-4.96
12,G36A G71U,-0.815
13,A26U G135A,-3.67
14,A41U C53G G63C C72U G77A,-3.7
15,A18C G19U,-5.8
16,A5G G63A U67G U96A C123U,-5.12
17,C3G C73U A90C,-3.32
18,A18C U55C C62U,-3.73
19,U7G G63U C88U G93C,-2.75
20,A24G A41G C88U U92A U112A U131C,-3.58
21,A6C U30C G69A,-5.82
22,C56A U78A,0.796
23,G44A A100C G110A,-4.23
24,C49U C73A C114U,-2.58

row,Variant,polymerase ribozyme fitness (log ratio)
1,G36U G110U G120A,-2.35
2,C8U C40U G52A C79G,-0.696
3,C80A U112A,-2.64
4,A50U C70G A84C C115A,-4.54
5,A41U C101G,-3.73
6,C11A U78C,-0.895
7,G45C C73U,-0.881
8,U7C U96C C102A A108U C114U,-5.22
9,A46U G60A C80A A121G,-1.19
10,U7G G17U A27C C53U C56A,-4.57
11,A16G G35U C49G C115A A119G A121U,-4.09
12,C34U A50U C73U C115A A119G,-4.5
13,U9G G63C,-0.0322
14,U14C U54G G93C C104U U116G,-3.88
15,G110A A121U,0.16
16,C8U C56U G61A A95U G120A,-6.04
17,G61A C102G,-6.12
18,U9C U78G U81A,-0.22
19,G77C C102U,-2.02
20,C28U C64U U87A,-1.96
21,U59C A83U C94A C115U,-4.3
22,A6C G10A U33A C49A A121U,-2.86
23,A29C C70U,-2.29
24,A43U C56G,-1.4

row,Variant,polymerase ribozyme fitness (log ratio)
1,G63U C97U U112C A121C,0.0312
2,C28A C56U,-2.94
3,A2C C8A G42C U54A U78A C98U G120A G127C,-2.04
4,C11G G42C,-1.1
5,G77A U78C A105C A121C,-1.42
6,G47C C101A,-2.59
7,G61U C86A C115U,-1.4
8,G47A C76A C115U,-3.07
9,C94U A121G,1.59
10,G47U C64U U67C,-7.12
11,C4G G10U A18G U59G A83C U87A,-4.53
12,C56A C97A,-3.81
13,G77C A95U,-0.809
14,A37U C86G C88U C104U U106A G113A C124G G127A,-4.82
15,A6G C72A C79A C102U A118U,-2.3
16,C99U C101U,-2.29
17,C99U C101A,-4.62
18,G61U U96C,0.151
19,G10A A37G G61C C85G C86A G113A C124G U130A,-5.79
20,A6G A121U U125G,-0.777
21,U7A G25A G42U A50U G61A C85G A90C C123U U133G,-8.16
22,C8U G61A C99U,-2.24
23,C79A C85A A119U,-5.64
24,C34U C79U U130C,-5.4

row,Variant,polymerase ribozyme fitness (log ratio)
1,U21A C49G G61U U130C,-0.83
2,G71U C88U A100C U106G,-5.6
3,C20A C82A U87G,-1.92
4,U67C U131A,-4.05
5,U87A A121G,1.17
6,C28U C72G,-2.23
7,C12U U14G C15G G61A C88U U129C,-1.38
8,A5C G42U G61C U78G C80A A84U C104G G113C A119U U125C U133A,-7.58
9,C3G G10C C34G G42U G69U C82G C102A U109A,-5.83
10,A37C C115U U130A U132G,-1.99
11,A6U G10C C12U C49A G69C A90C A91U,-2.98
12,U125A U133A,-0.956
13,C11U U21A A27G C70G A105G,-5.92
14,C56A A119G,0.651
15,G69A A84U,-3.06
16,C53A G60A U133A,-1.16
17,G17U C56G G113A,-5.78
18,A6C C40G A95C,-5.15
19,G127U U130G,-0.841
20,C94U G110A,-1.18
21,C70A U81A G93A,-3.44
22,A46C G48A G51A U87G C123A,-1.77
23,C53U U133A,-0.343
24,C3G C115A,-2.96

row,Variant,polymerase ribozyme fitness (log ratio)
1,A24G U54G G57C C124U,-2.01
2,A6U U78G A83C,-0.41
3,A37U C70U,-1.07
4,G39U C97A,-5.98
5,U38G C49U U125G,-2.98
6,C70G G120C,-1.8
7,C11G G52U C56G C102U A103C,-6.01
8,C12A C62U G128U,-3.03
9,C4U C11A,-1.89
10,U9G A43U G52U C72U C82A,-3
11,A6C C22G A43C U59A U87C A118G,-5.18
12,A111G G122U U129C,-5.05
13,A24G C40G G52U,-4.31
14,C20A A46C C62U C86U,-3.97
15,G10C G36A,-1.22
16,A29G C76U G77C,-2.58
17,C8G A29U G120U,0.42
18,A6U G47A C72G A75G,-2.41
19,A6G C12U A43C U54C C56U A66G C72U C73A,-6.56
20,A24G G44U G61A A74U U133G,-3.56
21,G120A G135A,-0.0112
22,C53G G120U,-0.149
23,C12G G51A,-2.1
24,G71C C79A C85G G120A,-3.28

row,Variant,polymerase ribozyme fitness (log ratio)
1,C11U C53U C94G C123G,-1.5
2,C114G G120A G135A,-4.92
3,A18C A27G A111U G128C,-6.38
4,G52A A74U,-0.719
5,C8A G36U C49G G71U,-1.2
6,C13A A41U G45C C82A,-4.65
7,U7G G117U,-2.24
8,G42C G60C G120U,-2.03
9,U9G G19U G45U C114A,1.58
10,C62U C98G,-5.88
11,U14C G42C U92G,-4.23
12,C13G C62U U125A,-1.62
13,C28A,-3.83
14,U7A C13U G71A C115U G128A,-2.21
15,C12U C62G U126A,-2.76
16,A29G G60A C86U,-2.06
17,C62U U131G,-0.5
18,G63C U126A G128U U133A,-3.25
19,U14G G47C C70U C85G G117A,-7.02
20,A74G G117U,-2.41
21,G51U C94G,-4.19
22,G61A G93A C97A G120U U133C,-6.04
23,C8A C28U G48C G57U G127C,-3.86
